Results taken from patent publication US20080044360A1 (COLLAGEN MEDICAL, published 2008).
Blank lines part the entries; values can stand above or below the binder they belong to. Bridge positions count the residues as written; N and C are the ends. Square brackets hold non-standard residues; d marks the D form. Ends that are not written are not given here.

Target: T1, human collagen type I, acid soluble, extracted from placenta (Sigma C7774) (human, UniProt P02452 162-1218; P08123 80-1119)
T1 construct: tissue extract, gelled and dried in wells; also called dried human collagen; h-Collagen
Test: dried collagen assay
Method: An additional 90 μL is reserved in a HPLC glass vial as a measure of the total concentration.

T1 sequence (P02452 162-1218 limits assumed, chain 1 of 2): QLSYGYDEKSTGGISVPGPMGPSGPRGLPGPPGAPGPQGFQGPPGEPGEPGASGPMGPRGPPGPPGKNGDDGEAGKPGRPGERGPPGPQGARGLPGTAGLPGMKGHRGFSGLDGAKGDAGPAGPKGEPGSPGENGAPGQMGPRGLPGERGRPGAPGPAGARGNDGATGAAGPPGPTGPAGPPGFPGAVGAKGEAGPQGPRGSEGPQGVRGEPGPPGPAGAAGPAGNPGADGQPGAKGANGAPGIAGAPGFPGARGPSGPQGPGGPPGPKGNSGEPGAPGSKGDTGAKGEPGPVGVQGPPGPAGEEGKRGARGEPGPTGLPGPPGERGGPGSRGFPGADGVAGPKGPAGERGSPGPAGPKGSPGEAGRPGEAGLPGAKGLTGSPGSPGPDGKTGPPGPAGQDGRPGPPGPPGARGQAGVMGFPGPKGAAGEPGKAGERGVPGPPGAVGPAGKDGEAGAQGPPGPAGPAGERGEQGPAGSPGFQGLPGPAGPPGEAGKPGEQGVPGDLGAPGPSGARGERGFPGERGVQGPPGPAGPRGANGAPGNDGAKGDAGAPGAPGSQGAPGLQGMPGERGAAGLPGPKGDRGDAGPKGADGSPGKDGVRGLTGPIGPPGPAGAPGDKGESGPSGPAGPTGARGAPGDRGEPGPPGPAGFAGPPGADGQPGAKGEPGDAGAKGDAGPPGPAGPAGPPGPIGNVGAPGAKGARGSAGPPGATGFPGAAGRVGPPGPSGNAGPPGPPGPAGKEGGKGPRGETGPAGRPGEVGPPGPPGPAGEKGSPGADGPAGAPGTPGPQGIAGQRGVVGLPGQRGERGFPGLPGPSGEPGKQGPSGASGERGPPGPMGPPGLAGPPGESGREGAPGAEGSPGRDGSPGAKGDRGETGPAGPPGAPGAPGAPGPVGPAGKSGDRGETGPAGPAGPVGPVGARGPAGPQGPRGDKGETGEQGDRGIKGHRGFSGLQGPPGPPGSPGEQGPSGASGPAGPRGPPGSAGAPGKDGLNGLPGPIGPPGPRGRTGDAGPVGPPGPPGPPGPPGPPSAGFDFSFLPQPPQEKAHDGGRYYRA
T1 sequence (P08123 80-1119 limits assumed, chain 2 of 2): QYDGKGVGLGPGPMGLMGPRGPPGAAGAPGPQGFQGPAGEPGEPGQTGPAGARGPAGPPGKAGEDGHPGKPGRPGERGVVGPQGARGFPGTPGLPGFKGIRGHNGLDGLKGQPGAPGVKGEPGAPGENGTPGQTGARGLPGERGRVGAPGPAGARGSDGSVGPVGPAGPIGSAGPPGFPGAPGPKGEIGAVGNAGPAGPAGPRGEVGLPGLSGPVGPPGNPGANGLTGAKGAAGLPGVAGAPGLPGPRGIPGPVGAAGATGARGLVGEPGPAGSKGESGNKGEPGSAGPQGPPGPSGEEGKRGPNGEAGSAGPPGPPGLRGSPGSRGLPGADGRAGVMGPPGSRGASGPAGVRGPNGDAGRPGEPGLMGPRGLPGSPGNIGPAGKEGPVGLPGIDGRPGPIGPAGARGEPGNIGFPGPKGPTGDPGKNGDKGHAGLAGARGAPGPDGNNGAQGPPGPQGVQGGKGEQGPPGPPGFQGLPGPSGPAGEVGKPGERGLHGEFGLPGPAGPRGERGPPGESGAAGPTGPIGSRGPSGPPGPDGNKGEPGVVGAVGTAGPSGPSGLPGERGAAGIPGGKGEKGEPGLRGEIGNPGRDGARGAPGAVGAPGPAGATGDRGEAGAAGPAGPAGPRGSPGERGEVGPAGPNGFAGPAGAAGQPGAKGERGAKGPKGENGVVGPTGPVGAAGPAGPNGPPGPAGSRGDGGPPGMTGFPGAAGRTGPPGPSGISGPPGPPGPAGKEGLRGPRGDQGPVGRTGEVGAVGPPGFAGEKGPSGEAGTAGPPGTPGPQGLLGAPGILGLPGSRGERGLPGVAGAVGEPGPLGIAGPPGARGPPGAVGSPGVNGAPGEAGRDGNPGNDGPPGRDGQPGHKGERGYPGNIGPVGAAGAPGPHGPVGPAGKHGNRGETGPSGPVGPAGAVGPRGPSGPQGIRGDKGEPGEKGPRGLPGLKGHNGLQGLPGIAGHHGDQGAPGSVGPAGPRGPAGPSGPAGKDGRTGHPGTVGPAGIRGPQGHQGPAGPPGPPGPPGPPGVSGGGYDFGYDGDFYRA

Binder: LTVCHPPYYGRCNFV (disulfide 4-12 (inferred), cyclic, disulfide) [SEQ ID NO 10]
- % bound: 9%

Binder: PWTCRMTENTWVCDLN (disulfide 4-13 (inferred), cyclic, disulfide) [SEQ ID NO 47]
- % bound: 22%

Binder: WWGCRQGTGEHWSHCMWF (disulfide 4-15 (inferred), cyclic, disulfide) [SEQ ID NO 100]
- % bound: 67%

Binder: RWSCWLDENGWKCDGT (disulfide 4-13 (inferred), cyclic, disulfide) [SEQ ID NO 52]
- % bound: 15%

Binder: AWSCWIVEGRWNCSDI (disulfide 4-13 (inferred), cyclic, disulfide) [SEQ ID NO 48]
- % bound: 22%

Binder: GWNCYEYDSQWICDHL (disulfide 4-13 (inferred), cyclic, disulfide) [SEQ ID NO 44]
- % bound: 28%

Binder: PWQCYSDKTSWVCNLY (disulfide 4-13 (inferred), cyclic, disulfide) [SEQ ID NO 43]
- % bound: 30%

Binder: AWTCVGGEKTWGCVWN (disulfide 4-13 (inferred), cyclic, disulfide) [SEQ ID NO 33]
- % bound: 12%

Binder: AWFCSQKNRLWSCGET (disulfide 4-13 (inferred), cyclic, disulfide) [SEQ ID NO 49]
- % bound: 19%

Binder: PLVCHPPYSGSCSLH (disulfide 4-12 (inferred), cyclic, disulfide) [SEQ ID NO 11]
- % bound: 9%

Binder: PMICHAPYVGKCNFL (disulfide 4-12 (inferred), cyclic, disulfide) [SEQ ID NO 12]
- % bound: 7%

Binder: SWICTGDNIDWNCRFA (disulfide 4-13 (inferred), cyclic, disulfide) [SEQ ID NO 28]
- % bound: 20%

Binder: WWACQKGQHDWEKCHWL (disulfide 4-14 (inferred), cyclic, disulfide) [SEQ ID NO 93]
- % bound: 5%

Binder: EWRCRGDSSSWLCDYT (disulfide 4-13 (inferred), cyclic, disulfide) [SEQ ID NO 40]
- % bound: 3%

Binder: MWDCTGNSAEWRCEMQ (disulfide 4-13 (inferred), cyclic, disulfide) [SEQ ID NO 34]
- % bound: 11%

Binder: DWTCSGDEYTWHCNYE (disulfide 4-13 (inferred), cyclic, disulfide) [SEQ ID NO 17]
- % bound: 78%

Binder: DWTCYGDEYTWHCNYE (disulfide 4-13 (inferred); not fully specified (C-terminus), cyclic, disulfide) [SEQ ID NO 15]
- % bound: 83%

Binder: DWTCSGDEYTWYCNYE (disulfide 4-13 (inferred), cyclic, disulfide) [SEQ ID NO 18]
- % bound: 78%

Binder: GQWTCSADEYTWHCNYE (disulfide 5-14 (inferred), cyclic, disulfide) [SEQ ID NO 142]
- % bound: 9%

B1: SEQ ID NO 171 (peptide)
peptide: QWTCSGDE[dY]TWHCNYE
modifications: disulfide 4-13 (inferred); not fully specified (N-terminus); printed as QWTCSGDEyTWHCNYE
notes: cyclic, disulfide
- % bound: 13%

Binder: PWYCSGDHLDWKCIYQ (disulfide 4-13 (inferred), cyclic, disulfide) [SEQ ID NO 20]
- % bound: 64%

Binder: YWVCGGDHQSWHCSHP (disulfide 4-13 (inferred), cyclic, disulfide) [SEQ ID NO 35]
- % bound: 8%

Binder: TWRCDQFKGKWVCRGG (disulfide 4-13 (inferred), cyclic, disulfide) [SEQ ID NO 42]
- % bound: 40%

Binder: TWNCYGVTEWHCYMI (disulfide 4-12 (inferred), cyclic, disulfide) [SEQ ID NO 9]
- % bound: 7%

Binder: EWQCTQYANQWNCKYN (disulfide 4-13 (inferred), cyclic, disulfide) [SEQ ID NO 45]
- % bound: 25%

Binder: WTDCQWMDEQLWTCRWD (disulfide 4-14 (inferred), cyclic, disulfide) [SEQ ID NO 94]
- % bound: 21%

Binder: WTDCQWMDEQIWTCRWD (disulfide 4-14 (inferred), cyclic, disulfide) [SEQ ID NO 95]
- % bound: 5%

Binder: DWTCVGDHKTWKCNFH (disulfide 4-13 (inferred), cyclic, disulfide) [SEQ ID NO 21]
- % bound: 57%

Binder: KWFCELMQDQWQCGSK (disulfide 4-13 (inferred), cyclic, disulfide) [SEQ ID NO 50]
- % bound: 18%

Binder: KWFCELMHDQWQCGSK (disulfide 4-13 (inferred), cyclic, disulfide) [SEQ ID NO 51]
- % bound: 18%

Binder: WWTCHMTWSGQWDSCKWH (disulfide 4-15 (inferred), cyclic, disulfide) [SEQ ID NO 101]
- % bound: 56%

Binder: AWDCSGNIPTWYCRRL (disulfide 4-13 (inferred), cyclic, disulfide) [SEQ ID NO 23]
- % bound: 44%

Binder: GWQCFGASDWHCTWV (disulfide 4-12 (inferred), cyclic, disulfide) [SEQ ID NO 8]
- % bound: 9%

Other lines, results leading:

- % bound: 24%
Binder: SWHCFGDNENWMCNLR (disulfide 4-13 (inferred), cyclic, disulfide) [SEQ ID NO 27]

- % bound: 16%
Binder: GWDCQGTDNIWECVRK (disulfide 4-13 (inferred), cyclic, disulfide) [SEQ ID NO 30]

- % bound: 17%
Binder: WQLCSSRNDHVAYCFVS (disulfide 4-14 (inferred), cyclic, disulfide) [SEQ ID NO 96]

- % bound: 13%
Binder: WISCESSEEKISYCWRA (disulfide 4-14 (inferred), cyclic, disulfide) [SEQ ID NO 97]

- % bound: 1%
Binder: VWACRGGTTNWHCDL (disulfide 4-13 (inferred), cyclic, disulfide) [SEQ ID NO 41]

- % bound: 39%
Binder: IWLCTGGAATWNCKFD (disulfide 4-13 (inferred), cyclic, disulfide) [SEQ ID NO 25]

- % bound: 25%
Binder: WRCDGDAHDWHCDWF (disulfide 3-12 (inferred), cyclic, disulfide) [SEQ ID NO 26]

- % bound: 23%
Binder: GWVCLQKGPKWVCDWD (disulfide 4-13 (inferred), cyclic, disulfide) [SEQ ID NO 46]

- % bound: 16%
Binder: DWICHGDFDTWKCDLQ (disulfide 4-13 (inferred), cyclic, disulfide) [SEQ ID NO 29]

- % bound: 55%
Binder: DWECHGNEFEWNCLMR (disulfide 4-13 (inferred), cyclic, disulfide) [SEQ ID NO 22]

- % bound: 12%
Binder: NWVCSGDHADWSCALI (disulfide 4-13 (inferred), cyclic, disulfide) [SEQ ID NO 32]

- % bound: 2%
Binder: YPACDDQTHLWNLACWPA (disulfide 4-15 (inferred), cyclic, disulfide) [SEQ ID NO 103]

- % bound: 9%
Binder: YHACYQAGCYIW (disulfide 4-9 (inferred), cyclic, disulfide) [SEQ ID NO 107]

- % bound: 11%
Binder: NWYCTGTKSWECFWK (disulfide 4-12 (inferred), cyclic, disulfide) [SEQ ID NO 7]

- % bound: 70%
Binder: DWTCSGDEYRWHCNYE (disulfide 4-13 (inferred), cyclic, disulfide) [SEQ ID NO 19]

- % bound: 83%
Binder: DWTCSGDEYYWHCNYE (disulfide 4-13 (inferred); not fully specified (C-terminus), cyclic, disulfide) [SEQ ID NO 16]

- % bound: 83%
Binder: DWTCRGDEYTWHCNYE (disulfide 4-13 (inferred), cyclic, disulfide) [SEQ ID NO 14]

- % bound: 11%
B2: SEQ ID NO 169 (peptide)
peptide: QWTCSG[dD]EYTWHCNYE
modifications: disulfide 4-13 (inferred); not fully specified (N-terminus); printed as QWTCSGdEYTWHCNYE
notes: cyclic, disulfide

- % bound: 43%
Binder: EWLCVGDSLKWYCKHS (disulfide 4-13 (inferred), cyclic, disulfide) [SEQ ID NO 24]

- % bound: 31%
Binder: WAYCMTDPSGKYRYCQNW (disulfide 4-15 (inferred), cyclic, disulfide) [SEQ ID NO 102]

- % bound: 20%
Binder: TWQCSGNQKWSCEWF (disulfide 4-12 (inferred), cyclic, disulfide) [SEQ ID NO 6]

- % bound: 15%
Binder: GWVCGGDHTTWECHLQ (disulfide 4-13 (inferred), cyclic, disulfide) [SEQ ID NO 31]
